T1: human CD98 on the cell surface (human)
T1 chain: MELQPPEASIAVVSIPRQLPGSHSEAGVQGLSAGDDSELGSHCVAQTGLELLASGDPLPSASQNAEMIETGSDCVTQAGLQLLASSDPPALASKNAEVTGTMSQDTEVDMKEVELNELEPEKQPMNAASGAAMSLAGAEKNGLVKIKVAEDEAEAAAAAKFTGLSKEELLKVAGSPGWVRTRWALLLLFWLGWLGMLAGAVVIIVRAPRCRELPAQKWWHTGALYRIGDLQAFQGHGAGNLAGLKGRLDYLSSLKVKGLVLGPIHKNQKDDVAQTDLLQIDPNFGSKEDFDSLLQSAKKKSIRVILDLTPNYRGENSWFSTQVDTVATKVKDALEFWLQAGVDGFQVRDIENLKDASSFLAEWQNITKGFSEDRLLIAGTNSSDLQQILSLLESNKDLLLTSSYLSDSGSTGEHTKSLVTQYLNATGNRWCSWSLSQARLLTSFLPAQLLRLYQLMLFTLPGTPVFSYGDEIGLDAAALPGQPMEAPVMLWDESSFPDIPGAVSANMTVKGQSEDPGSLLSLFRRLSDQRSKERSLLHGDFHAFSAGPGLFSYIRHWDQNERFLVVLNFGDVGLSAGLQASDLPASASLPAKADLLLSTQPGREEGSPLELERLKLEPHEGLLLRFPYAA

T2: human CD98 on human cancer cell lines (EBC-1, H2170, Molt-4) (human)
T2 chain: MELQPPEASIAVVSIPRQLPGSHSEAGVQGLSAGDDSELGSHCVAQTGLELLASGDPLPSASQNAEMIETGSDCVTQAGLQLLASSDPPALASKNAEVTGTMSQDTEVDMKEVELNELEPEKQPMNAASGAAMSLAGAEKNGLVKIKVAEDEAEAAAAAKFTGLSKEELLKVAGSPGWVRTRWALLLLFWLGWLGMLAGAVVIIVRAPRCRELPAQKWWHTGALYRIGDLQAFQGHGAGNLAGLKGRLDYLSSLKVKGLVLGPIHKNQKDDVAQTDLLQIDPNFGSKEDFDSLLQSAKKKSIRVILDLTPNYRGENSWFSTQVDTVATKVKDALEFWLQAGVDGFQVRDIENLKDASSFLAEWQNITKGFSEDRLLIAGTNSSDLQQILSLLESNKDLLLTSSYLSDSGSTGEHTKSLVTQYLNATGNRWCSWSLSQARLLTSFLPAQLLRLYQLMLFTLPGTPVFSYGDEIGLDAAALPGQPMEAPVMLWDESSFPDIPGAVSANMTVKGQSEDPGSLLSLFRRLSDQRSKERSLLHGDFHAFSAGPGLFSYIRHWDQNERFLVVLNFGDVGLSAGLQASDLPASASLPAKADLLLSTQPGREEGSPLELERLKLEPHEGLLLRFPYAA


Columns and labels:
[1] = target: T1, human CD98 on the cell surface; test: cell-based or functional assay
[2] = target: T2, human CD98 on human cancer cell lines …; test: cell-based or functional assay

ADC potency, IC50 (nM), H146 (SCLC) growth inhibition [1] | ADC potency, IC50 (nM), H2170 (NSCLC) growth inhibition [1] | ADC potency, IC50 (nM), MOLT4 (leukemia) growth inhibition [1] | ADC potency, IC50 (nM), EBC (NSCLC), growth inhibition (CellTiter-Glo) [2] | ADC potency, IC50 (nM), H2170 (NSCLC), growth inhibition (CellTiter-Glo) [2] | ADC potency, IC50 (nM), MOLT4 (leukemia), growth inhibition (CellTiter-Glo) [2] | Binder
0.194 nM | 0.137 nM | 0.048 nM | – | – | – | ChAb15-CZ (other, synthon CZ on reduced interchain Cys of the constant regions (sites not numbered)) VH: EVQLVESGGGLVQPGRSLKLSCAASGFTFSDYTMAWVRQAPKKGLEWVATIIYDGRGTYYRDSVKGRFTISRDNAKSTLYLQMDSLRSEDTATYYCARQSDGTYYYWGYFDYWGQGVMVTVSS VL: DIVMTQSPSSLAVSAGETVTINCKSSQSLLFSGNQKNYLAWYQQKPGQSPKLLIYWASTRQSGVPDRFIGSGSGTDFTLTIRSVQAEDLAIYYCQQYYDSPYTFGAGTKLELK
– | – | – | 271 nM | 0.273 nM | 0.046 nM | ChAb3-CZ-DAR2 (anti-CD98 chimeric chAb3 conjugated to Bcl-xL inhibitor synthon CZ, HIC-purified DAR2 species) (antibody, human IgG1, V domains shown, Bcl-xL inhibitor synthon CZ conjugated to cysteines of the TCEP-reduced antibody (Method H); positions not given; Bcl-xL inhibitor synthon CZ conjugated to cysteines of the TCEP-reduced antibody (Method H); DAR 2.0 by MS; positions not given) VH: EVKLVESGGGLVQPGNSLRLSCATSGFTFIDYYMSWVRQSPGKALEWLGFIRNKANGYTTEYSASVKGRFTISRDNSQSILYLQMDTLRAEDSATYYCTRDRPAWFVYWGQGTLVTVSA VL: DIVMSQSPSSLAVSVGEKVTMSCKSSQSLLYSSNQKNYLAWYQQKPGQSPKLLIYWASTRESGVPDRFTGSGSGTDFTLTFSSVRAEDLAVYYCQQYYSYPYTFGGGTKLEIK
– | – | – | 7.15 nM | 0.15 nM | 0.034 nM | ChAb3-CZ-Broad DAR (anti-CD98 chimeric chAb3 conjugated to Bcl-xL inhibitor synthon CZ, unfractionated, DAR 4.1) (antibody, human IgG1, V domains shown, Bcl-xL inhibitor synthon CZ conjugated to cysteines of the TCEP-reduced antibody (Method A); positions not given; Bcl-xL inhibitor synthon CZ conjugated to cysteines of the TCEP-reduced antibody (Method A); average DAR 4.1 by MS; positions not given) VH: EVKLVESGGGLVQPGNSLRLSCATSGFTFIDYYMSWVRQSPGKALEWLGFIRNKANGYTTEYSASVKGRFTISRDNSQSILYLQMDTLRAEDSATYYCTRDRPAWFVYWGQGTLVTVSA VL: DIVMSQSPSSLAVSVGEKVTMSCKSSQSLLYSSNQKNYLAWYQQKPGQSPKLLIYWASTRESGVPDRFTGSGSGTDFTLTFSSVRAEDLAVYYCQQYYSYPYTFGGGTKLEIK
– | – | – | 10.4 nM | 0.225 nM | 0.021 nM | ChAb3-CZ-DAR4 (anti-CD98 chimeric chAb3 conjugated to Bcl-xL inhibitor synthon CZ, HIC-purified DAR4 species) (antibody, human IgG1, V domains shown, Bcl-xL inhibitor synthon CZ conjugated to cysteines of the TCEP-reduced antibody (Method H); positions not given; Bcl-xL inhibitor synthon CZ conjugated to cysteines of the TCEP-reduced antibody (Method H); DAR 4.0 by MS; positions not given) VH: EVKLVESGGGLVQPGNSLRLSCATSGFTFIDYYMSWVRQSPGKALEWLGFIRNKANGYTTEYSASVKGRFTISRDNSQSILYLQMDTLRAEDSATYYCTRDRPAWFVYWGQGTLVTVSA VL: DIVMSQSPSSLAVSVGEKVTMSCKSSQSLLYSSNQKNYLAWYQQKPGQSPKLLIYWASTRESGVPDRFTGSGSGTDFTLTFSSVRAEDLAVYYCQQYYSYPYTFGGGTKLEIK
